Laboratory results taken from patent US20120316071A1 (published 2012).

T1: rHuman Erythropoietin R/Fc Chimera, CF (R&D Systems Cat#963-ER) (human, UniProt P19235 25-250)
T1 construct: Bought recombinant protein; also called EPO R; Epo R; Fc part of the bought chimera not given
T1 sequence (looked up): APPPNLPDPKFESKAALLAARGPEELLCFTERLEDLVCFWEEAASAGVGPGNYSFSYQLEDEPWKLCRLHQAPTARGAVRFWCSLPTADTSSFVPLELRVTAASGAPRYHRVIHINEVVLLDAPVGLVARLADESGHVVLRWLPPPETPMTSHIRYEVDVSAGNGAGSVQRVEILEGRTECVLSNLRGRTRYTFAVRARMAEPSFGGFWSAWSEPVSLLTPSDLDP

T2: rHuman Erythropoietin R/Fc Chimera, CF (R&D Systems Cat#963-ER) (human, UniProt P19235 25-250)
T2 construct: Bought recombinant protein; also called EPO R; EPO R/Fc; Fc part of the bought chimera not given
T2 sequence (looked up): T1 sequence (looked up)

B1: Fab VH3-23_IGHD2-21*01>3_IGHJ6*01 H100E/S108P/Y113G Y109G & V2-13_IGLJ2*01 (Fab, V domains shown)
VH: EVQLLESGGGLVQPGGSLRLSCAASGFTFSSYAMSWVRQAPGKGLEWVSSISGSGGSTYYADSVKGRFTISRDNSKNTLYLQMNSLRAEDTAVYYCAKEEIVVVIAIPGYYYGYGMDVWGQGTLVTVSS
VL: SSELTQDPAVSVALGQTVRITCQGDSLRSYYASWYQQKPGQAPVLVIYGKNNRPSGIPDRFSGSSSGNTASLTITGAQAEDEADYYCNSRDSSGNHLVVFGGGTKLTVL
notes: Tested as Fab made in E. coli: VH joined to CH1 (His and Flag tags), VL joined to lambda CL; also called EPG Y109G
B2: Fab VH3-23_IGHD2-21*01>3_IGHJ6*01 H100E/S108P/Y113G Y110N & V2-13_IGLJ2*01 (Fab, V domains shown)
VH: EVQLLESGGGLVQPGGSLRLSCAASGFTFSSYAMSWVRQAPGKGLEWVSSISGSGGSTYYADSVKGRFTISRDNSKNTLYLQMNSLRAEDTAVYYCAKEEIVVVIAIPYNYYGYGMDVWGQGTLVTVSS
VL: B1 VL
notes: Tested as Fab made in E. coli: VH joined to CH1 (His and Flag tags), VL joined to lambda CL; also called EPG Y110N
B3: Fab VH3-23_IGHD2-21*01>3_IGHJ6*01 H100E/S108P/Y113G Y110P & V2-13_IGLJ2*01 (Fab, V domains shown)
VH: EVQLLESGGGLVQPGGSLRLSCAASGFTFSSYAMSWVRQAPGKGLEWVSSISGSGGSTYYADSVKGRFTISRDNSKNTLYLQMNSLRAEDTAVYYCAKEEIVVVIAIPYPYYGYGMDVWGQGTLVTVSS
VL: B1 VL
notes: Tested as Fab made in E. coli: VH joined to CH1 (His and Flag tags), VL joined to lambda CL; also called EPG Y110P
B4: Fab VH3-23_IGHD2-21*01>3_IGHJ6*01 H100E/S108P/Y113G Y110H & V2-13_IGLJ2*01 (Fab, V domains shown)
VH: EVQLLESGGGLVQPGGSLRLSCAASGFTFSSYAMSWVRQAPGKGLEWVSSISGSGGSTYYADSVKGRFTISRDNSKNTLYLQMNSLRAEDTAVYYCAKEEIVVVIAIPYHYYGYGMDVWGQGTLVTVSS
VL: B1 VL
notes: Tested as Fab made in E. coli: VH joined to CH1 (His and Flag tags), VL joined to lambda CL; also called EPG Y110H
B5: Fab VH3-23_IGHD2-21*01>3_IGHJ6*01 H100E/S108P/Y113G Y109R & V2-13_IGLJ2*01 (Fab, V domains shown)
VH: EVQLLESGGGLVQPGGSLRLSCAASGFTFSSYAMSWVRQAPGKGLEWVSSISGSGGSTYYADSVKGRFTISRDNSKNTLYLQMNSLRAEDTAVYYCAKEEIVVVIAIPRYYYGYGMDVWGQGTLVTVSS
VL: B1 VL
notes: also called EPG Y109R
B6: Fab VH3-23_IGHD2-21*01>3_IGHJ6*01 H100E/S108P/Y113G Y110S & V2-13_IGLJ2*01 (Fab, V domains shown)
VH: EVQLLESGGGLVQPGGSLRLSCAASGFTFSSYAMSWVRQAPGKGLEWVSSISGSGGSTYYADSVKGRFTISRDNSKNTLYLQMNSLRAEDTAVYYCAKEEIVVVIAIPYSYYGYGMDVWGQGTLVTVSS
VL: B1 VL
notes: Tested as Fab made in E. coli: VH joined to CH1 (His and Flag tags), VL joined to lambda CL; also called EPG Y110S
B7: Fab VH3-23_IGHD2-21*01>3_IGHJ6*01 H100E/S108P/Y113G/Y111I & V2-13_IGLJ2*01 (Fab, V domains shown)
VH: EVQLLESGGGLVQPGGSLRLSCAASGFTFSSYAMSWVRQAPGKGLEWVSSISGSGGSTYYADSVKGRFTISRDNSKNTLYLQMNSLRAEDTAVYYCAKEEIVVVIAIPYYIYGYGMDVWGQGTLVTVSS
VL: B1 VL
notes: Fab made in E. coli: VH joined to CH1 (with His and Flag tags, plasmid A) and VL to lambda CL (plasmid E); also called EPG Y111I
B8: Fab VH3-23_IGHD2-21*01>3_IGHJ6*01 H100E/S108P/Y113G/Y111N & V2-13_IGLJ2*01 (Fab, V domains shown)
VH: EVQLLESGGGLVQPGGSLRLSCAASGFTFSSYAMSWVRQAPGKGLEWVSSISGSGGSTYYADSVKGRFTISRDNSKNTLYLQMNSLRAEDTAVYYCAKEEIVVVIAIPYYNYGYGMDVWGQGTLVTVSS
VL: B1 VL
notes: Fab made in E. coli: VH joined to CH1 (with His and Flag tags, plasmid A) and VL to lambda CL (plasmid E); also called EPG Y111N

molecular target: T3, rHuman IGF-1 sR, (IGF-1 sR), CF (R&D Systems Cat#391-GR) (human, UniProt P08069 31-932); assay: ECL multispot (MSD) binding assay, antigens spotted on plate, 20 nM Fab;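 note: fab incubated 1 h at 20 °C on antigen-spotted wells, bound Fab detected by TAG-labelled antibody, ratio of 4 or more over blank counted as a hit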
T3 construct: Bought recombinant soluble receptor; The column head prints only 'IGF-1'; also called insulin-like growth factor-1 soluble receptor

Binder	ECL multispot signal (ratio to blank; column not labelled)
B1	1.6
B2	0.9
B3	1.2
B4	1.3
B5	1.3
B6	1.1

molecular target: T4, rHuman P-Cadherin/Fc Chimera, CF (R&D Systems Cat#861-PC) (human, UniProt P22223 108-654); assay: as above
T4 construct: Bought recombinant protein; Fc part of the bought chimera not given

Binder	ECL multispot signal (ratio to blank; column not labelled)
B2	1.2
B3	1.7
B5	7.4
B6	1.9

molecular target: T5, rHuman CD44/Fc Chimera, CF (R&D Systems Cat#3660-CD) (human, UniProt P16070 21-220); assay: as above
T5 construct: Bought recombinant protein; Fc part of the bought chimera not given

Binder	ECL multispot signal (ratio to blank; column not labelled)
B1	1.5
B2	0.8
B3	1.2
B4	1.4
B5	1
B6	1

molecular target: T1, rHuman Erythropoietin R/Fc Chimera, CF …; assay: as above

Binder	ECL multispot signal (ratio to blank; column not labelled)
B1	11.1
B2	1.6
B3	2.9
B5	30.1
B6	4.5

molecular target: T6, rHuman Notch-1/Fc Chimera, CF (R&D Systems Cat#3647-TK) (human, UniProt P46531 19-526); assay: as above
T6 construct: Bought recombinant protein; Fc part of the bought chimera not given

Binder	ECL multispot signal (ratio to blank; column not labelled)
B1	1.5
B2	1.3
B3	1.1
B4	1.4
B5	1.4
B6	0.8

molecular target: T7, rHuman EGF R/Fc Chimera, CF (R&D Systems Cat#344-ER) (human, UniProt P00533 25-645); assay: as above
T7 construct: Bought recombinant protein; also called epidermal growth factor receptor; Fc part of the bought chimera not given

Binder	ECL multispot signal (ratio to blank; column not labelled)
B1	2
B2	0.9
B3	1.1
B4	1.7
B5	1.8
B6	1.3

molecular target: T8, rHuman ErbB2/Fc Chimera, CF (R&D Systems Cat#1129-ER) (human, UniProt P04626 23-652); assay: as above
T8 construct: Bought recombinant protein; also called human epidermal growth factor 2 receptor; Fc part of the bought chimera not given

Binder	ECL multispot signal (ratio to blank; column not labelled)
B1	1.4
B2	1.2
B3	0.9
B4	2.2
B5	2
B6	1

molecular target: T9, Recombinant Human DLL4 (R&D Systems Cat#1506-D4/CF) (human, UniProt Q9NR61 27-524); assay: as above
T9 construct: Bought recombinant protein; also called delta-like protein 4; rHuman DLL4

Binder	ECL multispot signal (ratio to blank; column not labelled)
B1	1.9
B2	1.2
B3	1.4
B4	1.9
B5	1.5
B6	1.2

molecular target: T10, rHuman ErbB2/Fc Chimera, CF (R&D Systems Cat#1129-ER) (human, UniProt P04626 23-652); assay: ECL (MSD) multispot binding assay, antigen spotted on plate, 20 nM Fab;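 note: purified Fab incubated 1 h at 20 °C on antigen-spotted plate, bound Fab revealed with TAG detection antibody, ECL read, antigen signal divided by same-well blank, ratio ≥4 counted as hit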
T10 construct: Bought recombinant protein; also called human epidermal growth factor 2 receptor; Fc part of the bought chimera not given

Binder	ECL signal/blank ratio
B7	1.7
B8	1.5

molecular target: T11, rHuman P-Cadherin/Fc Chimera, CF (R&D Systems Cat#861-PC) (human, UniProt P22223 108-654); assay: as above
T11 construct: Bought recombinant protein; Fc part of the bought chimera not given

Binder	ECL signal/blank ratio
B7	1.9
B8	2.9

molecular target: T12, rHuman IGF-1 sR, (IGF-1 sR), CF (R&D Systems Cat#391-GR) (human, UniProt P08069 31-932); assay: as above
T12 construct: Bought recombinant soluble receptor; also called insulin-like growth factor-1 soluble receptor

Binder	ECL signal/blank ratio
B7	1
B8	0.8

molecular target: T13, rHuman EGF R/Fc Chimera, CF (R&D Systems Cat#344-ER) (human, UniProt P00533 25-645); assay: as above
T13 construct: Bought recombinant protein; also called epidermal growth factor receptor; Fc part of the bought chimera not given

Binder	ECL signal/blank ratio
B7	1.9
B8	1.4

molecular target: T2, rHuman Erythropoietin R/Fc Chimera, CF …; assay: as above

Binder	ECL signal/blank ratio
B7	6.9
B8	9.3

molecular target: T14, Recombinant Human DLL4 (R&D Systems Cat#1506-D4/CF) (human, UniProt Q9NR61 27-524); assay: as above
T14 construct: Bought recombinant protein; also called delta-like protein 4; rHuman DLL4

Binder	ECL signal/blank ratio
B7	1.5
B8	1.1

molecular target: T15, rHuman Notch-1/Fc Chimera, CF (R&D Systems Cat#3647-TK) (human, UniProt P46531 19-526); assay: as above
T15 construct: Bought recombinant protein; Fc part of the bought chimera not given

Binder	ECL signal/blank ratio
B7	1.8
B8	1.3

molecular target: T16, rHuman CD44/Fc Chimera, CF (R&D Systems Cat#3660-CD) (human, UniProt P16070 21-220); assay: as above
T16 construct: Bought recombinant protein; Fc part of the bought chimera not given

Binder	ECL signal/blank ratio
B7	1.3
B8	0.9
